B1: C19orf51 (parent)
chain: FAPQTGARPSETFARFCKSQESAL
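Also: lentivirally expressed fusions sorted by FACS into six bins by GFP to DsRed ratio, PSI derived from sequencing read proportions per bin multiplied by bin number.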

In the data set the parent is B1. In words: protein stability index of a GFP-peptide fusion (GPS, HEK-293T) (PSI 1-6); higher = more stable. The conditions noted are these: c terminus: a fixed tail appended.
As for FAPQTGARPSEYFARFCKSQESAL [T12Y], the protein stability index is 2.48.

Turning to FAPQTGARPSEPFARFCKSQESAL [T12P], the protein stability index came out at 1.82.

Turning to FAPQTGARPSEFFARFCKSQESAL [T12F], the protein stability index stood at 2.96.

In the case of FAPQTGARPSEMFARFCKSQESAL [T12M], the protein stability index stood at 2.29.

Consider FAPQTGARPSEGFARFCKSQESAL [T12G], for which the protein stability index was found to be 1.46.

For the variant FAPQTGARPSERFARFCKSQESAL [T12R], the protein stability index stood at 2.39.

On to FAPQTGARPSEHFARFCKSQESAL [T12H], for which the protein stability index was determined as 1.87.

In the case of FAPQTGARPSELFARFCKSQESAL [T12L], the protein stability index amounted to 2.87.

As for FAPQTGARPSENFARFCKSQESAL [T12N], the protein stability index amounted to 2.66.

Turning to FAPQTGARPSEVFARFCKSQESAL [T12V], the protein stability index was determined as 2.77.

As for FAPQTGARPSEQFARFCKSQESAL [T12Q], the protein stability index is 1.35.

Turning to FAPQTGARPSETFARKCKSQESAL [F16K], the protein stability index amounted to 2.31.

On to FAPQTGARPSETFARSCKSQESAL [F16S], for which the protein stability index was determined as 2.79.

For the variant FAPQTGARPSETFARRCKSQESAL [F16R], the protein stability index was 1.4.

With FAPQTGARPSETFARECKSQESAL [F16E], the protein stability index is 1.54.

For FAPQTGARPSETFARACKSQESAL [F16A], the protein stability index came out at 2.44.

As for FAPQTGARPSETFARGCKSQESAL [F16G], the protein stability index was 2.38.

With FAPQTGARPSETFARTCKSQESAL [F16T], the protein stability index amounted to 2.52.

As to FAPQTGARPSETFARHCKSQESAL [F16H], the protein stability index was 2.07.

In the case of FAPQTGARPSETFARICKSQESAL [F16I], the protein stability index turned out to be 1.89.

With FAPQTGARPSETFARQCKSQESAL [F16Q], the protein stability index was 1.54.

In the case of FAPQTGARPSETFARCCKSQESAL [F16C], the protein stability index was found to be 2.62.

With FAPQTGARPSETFARDCKSQESAL [F16D], the protein stability index amounted to 1.77.

Take FAPQTGARPSETFARNCKSQESAL [F16N]: the protein stability index turned out to be 1.93.

FAPQTGARPSETFARLCKSQESAL [F16L]: the protein stability index stood at 3.42.

In the case of FAPQTGARPSETVARFCKSQESAL [F13V], the protein stability index was 2.92.

FAPQTGARPSETSARFCKSQESAL [F13S]: the protein stability index turned out to be 1.41.

For the variant FAPQTGARPSETQARFCKSQESAL [F13Q], the protein stability index came to 2.12.

For the variant FAPQTGARPSETTARFCKSQESAL [F13T], the protein stability index was 1.82.

With FAPQTGARPSETKARFCKSQESAL [F13K], the protein stability index was 2.31.

Regarding FAPQTGARPSETRARFCKSQESAL [F13R], the protein stability index worked out at 1.94.

For FAPQTGARPSETAARFCKSQESAL [F13A], the protein stability index stood at 1.89.

As for FAPQTGARPSETHARFCKSQESAL [F13H], the protein stability index turned out to be 1.48.

For FAPQTGARPSETDARFCKSQESAL [F13D], the protein stability index turned out to be 1.86.

As for FAPQTGARPSETCARFCKSQESAL [F13C], the protein stability index amounted to 3.95.

Consider FAPQTGARPSETYARFCKSQESAL [F13Y], for which the protein stability index amounted to 1.49.

For FAPQTGARPSETMARFCKSQESAL [F13M], the protein stability index stood at 1.92.

Consider FAPQTGARPSETPARFCKSQESAL [F13P], for which the protein stability index was found to be 1.07.

On to FAPQTGARPSETLARFCKSQESAL [F13L], for which the protein stability index came to 2.54.

In the case of FAPQTGARPSETIARFCKSQESAL [F13I], the protein stability index worked out at 1.7.

Take FAPQTGARPSETGARFCKSQESAL [F13G]: the protein stability index came out at 2.

For the variant FAPQTGARPSETNARFCKSQESAL [F13N], the protein stability index was found to be 2.49.

For FAPQTGARPSETEARFCKSQESAL [F13E], the protein stability index came out at 1.98.

Take FAPQTGARPSETFLRFCKSQESAL [A14L]: the protein stability index was 2.12.

For the variant FAPQTGARPSETFYRFCKSQESAL [A14Y], the protein stability index was 3.2.

On to FAPQTGARPSETFGRFCKSQESAL [A14G], for which the protein stability index came to 1.74.

FAPQTGARPSETFNRFCKSQESAL [A14N]: the protein stability index turned out to be 1.44.

For the variant FAPQTGARPSETFCRFCKSQESAL [A14C], the protein stability index was found to be 1.69.

In the case of FAPQTGARPSETFQRFCKSQESAL [A14Q], the protein stability index came to 2.63.

On to FAPQTGARPSETFRRFCKSQESAL [A14R], for which the protein stability index is 1.82.

As for FAPQTGARPSETFVRFCKSQESAL [A14V], the protein stability index worked out at 2.17.

As for FAPQTGARPSETFERFCKSQESAL [A14E], the protein stability index is 1.77.

Regarding FAPQTGARPSETFDRFCKSQESAL [A14D], the protein stability index stood at 1.69.

In the case of FAPQTGARPSETFMRFCKSQESAL [A14M], the protein stability index was 3.45.

Regarding FAPQTGARPSETFIRFCKSQESAL [A14I], the protein stability index came out at 3.27.

As for FAPQTGARPSETFTRFCKSQESAL [A14T], the protein stability index was found to be 2.09.

On to FAPQTGARPSETFSRFCKSQESAL [A14S], for which the protein stability index amounted to 1.89.

With FAPQTGARPSETFFRFCKSQESAL [A14F], the protein stability index turned out to be 1.33.

As for FAPQTGARPSETFASFCKSQESAL [R15S], the protein stability index was 1.08.

With FAPQTGARPSETFAGFCKSQESAL [R15G], the protein stability index stood at 2.37.

As for FAPQTGARPSETFAEFCKSQESAL [R15E], the protein stability index amounted to 2.65.

For FAPQTGARPSETFAVFCKSQESAL [R15V], the protein stability index is 3.42.

For FAPQTGARPSETFAAFCKSQESAL [R15A], the protein stability index was determined as 2.94.

With FAPQTGARPSETFANFCKSQESAL [R15N], the protein stability index amounted to 3.83.

In the case of FAPQTGARPSETFAIFCKSQESAL [R15I], the protein stability index turned out to be 2.75.

FAPQTGARPSETFALFCKSQESAL [R15L]: the protein stability index was found to be 2.84.

Consider FAPQTGARPSETFATFCKSQESAL [R15T], for which the protein stability index turned out to be 2.14.

In the case of FAPQTGARPSETFADFCKSQESAL [R15D], the protein stability index stood at 1.27.

On to FAPQTGARPSETFAQFCKSQESAL [R15Q], for which the protein stability index was 1.16.

For the variant FAPQTGARPSETFAFFCKSQESAL [R15F], the protein stability index worked out at 1.72.

For FAPQTGARPSETFAKFCKSQESAL [R15K], the protein stability index amounted to 2.48.

Take FAPQTGARPSETFAHFCKSQESAL [R15H]: the protein stability index turned out to be 1.69.

For the variant FAPQTGARPSETFACFCKSQESAL [R15C], the protein stability index was found to be 3.88.

Consider FAPQTGARPSETFARFCISQESAL [K18I], for which the protein stability index was 2.29.

For the variant FAPQTGARPSETFARFCCSQESAL [K18C], the protein stability index was 2.44.

Consider FAPQTGARPSETFARFCDSQESAL [K18D], for which the protein stability index was determined as 1.1.

As to FAPQTGARPSETFARFCESQESAL [K18E], the protein stability index was 1.92.

Take FAPQTGARPSETFARFCGSQESAL [K18G]: the protein stability index was found to be 2.56.

For the variant FAPQTGARPSETFARFCHSQESAL [K18H], the protein stability index was 2.19.

As for FAPQTGARPSETFARFWKSQESAL [C17W], the protein stability index worked out at 3.

For FAPQTGARPSETFARFLKSQESAL [C17L], the protein stability index was determined as 1.42.

For the variant FAPQTGARPSETFARFQKSQESAL [C17Q], the protein stability index is 1.35.

As to FAPQTGARPSETFARFGKSQESAL [C17G], the protein stability index was 3.94.

Consider FAPQTGARPSETFARFVKSQESAL [C17V], for which the protein stability index turned out to be 2.31.

With FAPQTGARPSETFARFSKSQESAL [C17S], the protein stability index worked out at 1.74.

Turning to FAPQTGARPSETFARFDKSQESAL [C17D], the protein stability index was determined as 1.68.

On to FAPQTGARPSETFARFYKSQESAL [C17Y], for which the protein stability index is 2.92.

As to FAPQTGARPSETFARFHKSQESAL [C17H], the protein stability index amounted to 1.2.

With FAPQTGARPSETFARFAKSQESAL [C17A], the protein stability index was 2.9.

For the variant FAPQTGARPSETFARFMKSQESAL [C17M], the protein stability index came to 3.12.

For FAPQTGARPSETFARFIKSQESAL [C17I], the protein stability index was 2.98.

For the variant FAPQTGARPSETFARFEKSQESAL [C17E], the protein stability index was found to be 1.09.

For FAPQTGARPSETFARFPKSQESAL [C17P], the protein stability index amounted to 1.9.

As for FAPQTGARPSETFARFNKSQESAL [C17N], the protein stability index stood at 2.79.
